Drawing on patent US20220289848A1, this text covers EC50 and PD-1/PD-L1 blockade bioassay, relative activity (reference) for 2 substances.

The target of one assay is PD-L1 (UniProt Q9NZQ7). The experiment in a line: FACS binding, CHO-K1 cells expressing PD-L1; flat curve.
The target in another assay is CD47 (UniProt Q08722). The experiment in a line: FACS binding, CHO-K1 cells expressing CD47; flat curve. On the technique in general: A flow cytometer gives signals particle by particle.
In assay [1] the target is human PD-L1 on PD-L1 aAPC/CHO-K1 Cells (human) (UniProt Q9NZQ7). The experiment in a line: cell-based or functional assay.
human PD-L1 on PD-L1 aAPC/CHO-K1 Cells (human), sequence (Q9NZQ7 19-290): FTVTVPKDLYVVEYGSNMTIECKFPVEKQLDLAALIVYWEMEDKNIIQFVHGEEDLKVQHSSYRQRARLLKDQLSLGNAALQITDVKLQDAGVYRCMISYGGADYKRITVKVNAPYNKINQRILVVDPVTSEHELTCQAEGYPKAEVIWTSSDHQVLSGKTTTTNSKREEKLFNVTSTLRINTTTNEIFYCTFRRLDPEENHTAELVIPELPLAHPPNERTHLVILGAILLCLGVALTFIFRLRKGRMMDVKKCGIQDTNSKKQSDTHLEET

PD-L1, sequence (Q9NZQ7 19-290): as above

Turning to Human IgG, the EC50 – broadly, the concentration giving half of the maximal effect – was 38.3 nM with PD-L1 and 0.00446 nM with CD47.

As to Tecentriq biosimilar (antibody), in assay [1], the PD-1/PD-L1 blockade bioassay, relative activity (reference) was determined as 100%.
